From US20050136055A1 come the findings set out here.

For test [1], the target named is Fc receptors (FcR) on human leukocytes (human). The experiment in a line: 125I-labelled IgG1 control on human leukocytes, 4 C.
In test [2] the target is Fc receptors (FcR) on cynomolgus leukocytes (cynomolgus). The test can be described thus: 125I-labelled IgG1 control on cynomolgus leukocytes, 4 C.

In the case of human IgG1 control mAb (antibody), the specific binding as % of the total bound radioactivity worked out at 56% in test [1] and 51% in test [2].
